According to patent US20250152627A1 (published 2025):

B1: AM0627-35 aa Linker-EE Zip (enzyme)
chain: ANTPEHIGNDLKLFKDSSCTSLKPDVKNTSAFQSDAMKELATKILAGHYKPDYLYAEYRALPSPRQTGKNLRIGDGFSKYDNMTGVYLEKGRHVVLVGKTEGQEISLLLPNLMRKPAEGVQPTKDPNGWGLHKKQIPLKEGINIIDVETPANAYISYFTEDAGKAPKIPVHFVTGKANGYFDTTRGDTNKDWVRLLDQAVSPIMDARGKYIQVAYPVEFLKKFTKDRGTELINAYDKLIGIQYQLMGLDKYGKIPENRVLARVNFNYYMFRDGDGVAYLGNDGTMRMVTDPENVLKGDACWGFSHEVGHVMQMRPMTWGGMTEVSNNIFSLQAAAKTGNESRLKRQGSYDKARKEIIEGEIAYLQSKDVFNKLVPLWQLHLYFTKNGHPDFYPDVMEYLRNNAGNYGGNDTVKYQFEFVKACCDVTKTDLTDFFEKWGFFKPGKFHIGDYAQYDFNVTPEMVEETKKWIAGKGYPKPETDITELSEGGGGSGGGGSGGGGSGGGGSGGGGSGGGGSGGGGSMDPDLEIEAAFLERENTALETRVAELRQRVQRLRNRVSQYRTRYGPLGGGK
B2: BT4244-35 aa Linker-EE Zip (enzyme)
chain: FSISEEYLIQNLDKSSTSVQIPINTSMELAQWSVSYEANWLQCSKQKTAAEGTFLRITVNENTGETKRTANIKVTSTTATYTITVNQYAKGEVIVEGDIKVTPTGGKASEHQEGQDIENTYDGKFSTDGAAPFHTPWGQSAKFPVTLEYYFKGDTEIDYLIYYTRSGNGNFGKVKVYTTTNPDRSDYTLQGEYDFKEQNAPSKVSFSEGIKATGIKFEVLSGLGDFVSCDEMEFYKTNTDKTLDKQLLTVFTDITCTEIKNNVTNEQIQALPDYFVRIAEAVRDNTYDKWEKEFRIRSYEPYSNIAEWADKLMTKKYSDLDNPTGISVKAGDDIIVLVGDTYGQNISMQCIWETGTEYKQTASSGDVYMLNPGVNKLTMKGEGQLFVMYNTELTSNTAKPIKIHIPLGSGTVNGFFDLKEHKTDEKYAELLKKSTHKYFCIRGEKIMFYFHRNKLLEYVPNNILSAIHLWDNIVGWQQELMGIDDVRPSQVNNHLFAISPEGSYMWASDYQIGFVYTYLGNILLEDNVMAAEDNAWGPAHEIGHVHQAAINWASSTESSNNLFSNFIIYKLGKYKSRGNGLGSVATARYANGQAWYNMGDATHQNEDTETHMRMNWQLWIYYHRCEYKTDFWQTLFKLMREVNMTEGEDPGKKQLEFAKMASKAANQNLTDFFEMWGFFEPVNTTIEQYGTYKYYVSDAMIREAKEYMAQFPAPKHAFQYIEDRKKSEFPSNDYRYSAVGDVGYYTQFKENQKITKAITAELAGRKVSIQNGDEAVAFELRENDENGKLLYFSTFTTFEIPSSILMGGGGSGGGGSGGGGSGGGGSGGGGSGGGGSGGGGSMDPDLEIEAAFLERENTALETRVAELRQRVQRLRNRVSQYRTRYGPLGGGK
B3: StcE ΔX409-35 aa Linker-EE Zip (enzyme)
chain: ADNNSAIYFNTSQPINDLQGSLAAEVKFAQSQILPAHPKEGDSQPHLTSLRKSLLLVRPVKADDKTPVQVEARDDNNKILGTLTLYPPSSLPDTIYHLDGVPEGGIDFTPHNGTKKIINTVAEVNKLSDASGSSIHSHLTNNALVEIHTANGRWVRDIYLPQGPDLEGKMVRFVSSAGYSSTVFYGDRKVTLSVGNTLLFKYVNGQWFRSGELENNRITYAQHIWSAELPAHWIVPGLNLVIKQGNLSGRLNDIKIGAPGELLLHTIDIGMLTTPRDRFDFAKDKEAHREYFQTIPVSRMIVNNYAPLHLKEVMLPTGELLTDMDPGNGGWHSGTMRQRIGKELVSHGIDNANYGLNSTAGLGENSHPYVVAQLAAHNSRGNYANGIQVHGGSGGGGIVTLDSTLGNEFSHEVGHNYGLGHYVDGFKGSVHRSAENNNSTWGWDGDKKRFIPNFYPSQTNEKSCLNNQCQEPFDGHKFGFDAMAGGSPFSAANRFTMYTPNSSAIIQRFFENKAVFDSRSSTGFSKWNADTQEMEPYEHTIDRAEQITASVNELSESKMAELMAEYAVVKVHMWNGNWTRNIYIPTASADNRGSILTINHEAGYNSYLFINGDEKVVSQGYKKSFVSDGQFWKERDVVDTREARKPEQFGVPVTTLVGYYDPEGTLSSYIYPAMYGAYGFTYSDDSQNLSDNDCQLQVDTKEGQLRFRLANHRANNTVMNKFHINVPTESQPTQATLVCNNKILDTKSLTPAPEGLTYTVNGGGGSGGGGSGGGGSGGGGSGGGGSGGGGSGGGGSMDPDLEIEAAFLERENTALETRVAELRQRVQRLRNRVSQYRTRYGPLGGGK

Key:
[1] = target: IgK leader-ALFA Tag-RR Zip-Myc Tag-PDGFRβ TM-sfGFP; assay: flow cytometry cell binding
[2] = target: IgK leader-ALFA Tag-RR Zip-Myc Tag-PDGFRβ TM-sfGFP; assay: flow

Row | Binder | Kd [1] | Kd [2]
1 | B1 | ~0.45 nM | 
2 | B2 | ~2.54 nM | 
3 | B3 |  | ~3.09 nM
